Test results as given in patent US12310324B2, “Compositions and methods for minimizing nornicotine synthesis in tobacco” (North Carolina State University, priority 2010, dated 2025).

B1: CYP82E4 V376M: CYP82E4 variant with methionine for valine at position 376 (protein, listed as Nicotiana tabacum)
chain: MLSPIEAIVGLVTFTFLFFFLWTKKSQKPSKPLPPKIPGGWPVIGHLFHFNDDGDDRPLARKLGDLADKYGPVFTFRLGLPLVLVVSSYEAVKDCFSTNDAIFSNRPAFLYGDYLGYNNAMLFLANYGPYWRKNRKLVIQEVLSASRLEKFKHVRFARIQASIKNLYTRIDGNSSTINLTDWLEELNFGLIVKMIAGKNYESGKGDEQVERFKKAFKDFMILSMEFVLWDAFPIPLFKWVDFQGHVKAMKRTFKDIDSVFQNWLEEHINKREKMEVNAEGNEQDFIDVVLSKMSNEYLGEGYSRDTVIKATVFSLVLDAADTVALHINWGMALLINNQKALTKAQEEIDTKVGKDRWVEESDIKDLVYLQAIVKEMLRLYPPGPLLVPHENVEDCVVSGYHIPKGTRLFANVMKLQRDPKLWSDPDTFDPERFIATDIDFRGQYYKYIPFGSGRRSCPGMTYALQVEHLTMAHLIQGFNYRTPNDEPLDMKEGAGITIRKVNPVELIIAPRLAPELY
modifications: CYP82E4 V376M Variant
B2: CYP82E10: wild type root-specific tobacco nicotine demethylase (cytochrome P450) expressed in yeast (protein, listed as Nicotiana tabacum)
chain: MVSPVEAIVGLVTLTLLFYFIRTKKSQKPSKPLPPKIPGGWPVIGHLFYFDDDSDDRPLARKLGDLADKYGPVFTFRLGLPLVLVVSSYEAIKDCFSTNDAIFSNRPAFLYGEYLGYNNAMLFLTKYGPYWRKNRKLVIQEVLCASRLEKLKHVRFGEIQTSIKNLYTRIDGNSSTINLTDWLEELNFGLIVKMIAGKNYESGKGDEQVERFRKAFKDFIILSMEFVLWDAFPIPLFKWVDFQGHVKAMKRTFKDIDSVFQNWLEEHVKKKEKMEVNAEGNEQDFIDVVLSKMSNEYLDEGYSRDTVIKATVFSLVLDAADTVALHMNWGMALLINNQHALKKAQEEIDKKVGKDRWVEESDIKDLVYLQTIVKEVLRLYPPGPLLVPHENVEDCVVSGYHIPKGTRLFANVMKLQRDPKLWSNPDKFDPERFFAADIDFRGQHYEFIPFGSGRRSCPGMTYAMQVEHLTIAHLIQGFNYKTPNDEPLDMKEGAGLTIRKVNPIEVVITPRLTPELY

Key:
[1] = target: CYP82E4 nicotine demethylase (Nicotiana tabacum, UniProt Q38Q87, V376M)
[2] = test system: CYP82E10 nicotine demethylase; assay: Nicotine demethylase assay, yeast microsomal membranes with [14C]-nicotine, CYP82E10 and variants; type: biochemical, tobacco
Description: To determine whether CYP82E10 functions as a nicotine demethylase gene, its cDNA was cloned into the yeast expression vector pYeDP60 and transformed into yeast strain W(R). Strain W(R) is a yeast cell line that was engineered to overexpress the yeast NADPH-dependent P450 reductase, an enzyme that serves as the direct electron donor to P450s; this system greatly enhances the detection of foreign P450 enzyme activities that are expressed in yeast (Pompon et al., 1995). Nicotine demethylase assays were conducted by incubating yeast microsomal membrane preparations with [^14C]-nicotine, and resolving the products by thin layer chromatography as described in Siminszky et al. (2005).
The nucleotide and amino acid residues mutated in these plants are also highlighted in FIG. 1. Although no truncation mutations were observed among these individuals, in several cases, mutations were identified that altered an amino acid residue within a highly conserved region of the enzyme. To determine the effects of a particular mutation on CYP82E10 enzyme activity, site-directed mutagenesis was used to introduce the specific mutations corresponding to seven of the nine mutations shown in Table 2 into the CYP82E10 cDNA within the pYeDP60 yeast expression vector. Microsomal preparations from yeast strains expressing each of the seven CYP82E10 variants were assayed in vitro for nicotine demethylase activity using both non-saturating (2.45 μM) and saturating (50 μM) concentrations of [^14C]-nicotine.

[3] = test system: CYP82E10 nicotine demethylase; type: cell-based, tobacco; conditions: cultures shaken overnight with 55 μM [14C]-nicotine, methanol extract, TLC
Protocol: Nicotine demethylase activities of wild type and 1041 mutant CYP82E10-expressing yeast cells was also assayed in vivo.

[4] = test system: CYP82E10 nicotine demethylase; assay: Nicotine demethylase assay, yeast microsomal membranes with [14C]-nicotine, CYP82E10 and variants; type: biochemical, tobacco; conditions: at the 25 μM substrate level
[5] = counts per minute of [14C]-nornicotine/mg microsomal protein, ± SD of two technical replications

CYP82E4 nicotine demethylase, sequence (Q38Q87 whole entry V376M): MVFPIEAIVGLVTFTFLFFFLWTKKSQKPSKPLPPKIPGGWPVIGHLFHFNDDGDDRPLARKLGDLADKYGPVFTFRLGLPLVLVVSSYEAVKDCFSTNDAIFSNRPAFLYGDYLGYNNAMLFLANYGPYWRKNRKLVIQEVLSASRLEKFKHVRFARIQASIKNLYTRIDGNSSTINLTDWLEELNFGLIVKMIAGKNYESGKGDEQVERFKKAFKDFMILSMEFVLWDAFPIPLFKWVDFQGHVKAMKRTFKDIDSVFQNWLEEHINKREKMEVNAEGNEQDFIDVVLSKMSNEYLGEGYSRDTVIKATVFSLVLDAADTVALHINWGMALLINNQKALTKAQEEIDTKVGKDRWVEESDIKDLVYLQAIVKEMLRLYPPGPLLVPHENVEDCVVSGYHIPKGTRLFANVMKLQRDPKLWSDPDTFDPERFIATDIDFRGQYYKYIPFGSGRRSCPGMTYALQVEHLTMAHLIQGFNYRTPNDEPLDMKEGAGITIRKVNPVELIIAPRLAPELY

Row | Molecule | nicotine demethylase activity relative to the wild-type CYP82E4 polypeptide [1] | CPM nornicotine at 2.45 μM [14C]-nicotine substrate [2, 5] | CPM nornicotine at 50.0 μM [14C]-nicotine substrate [2, 5] | nicotine demethylase (enzyme) activity, result in words ([2]; yeast microsomes, [14C]-nicotine) | nornicotine detected in extracts of yeast [3] | rate of [14C]-nornicotine synthesis relative to preparations containing CYP82E4v2 [4]
1 | B1 | about 50% | – | – | – | – | –
2 | B2 | – | 2,296 ± 99 ^ CPM | 15,253 ± 465 CPM | very robust nicotine demethylase activity | could be detected | nearly three times greater
